Laboratory results: patent publication US20240010735A1 (EISAI R AND D MANAGEMENT, published 2024)

Legend:
[1] = target: T1, human EphA5 extracellular region-SEAP-His protein (human, UniProt P54756 25-573); assay: ELISA: SEAP-His proteins (1 nM) captured on anti-6-His antibody, antibody A 10 µg/mL with human IgG 100 µg/mL, HRP anti-mouse IgG, OD450 as % of human EphA4-SEAP-His
T1 construct: extracellular domain; also called Eph receptor extracellular region-SEAP-His protein; not shown: secretory alkaline phosphatase (SEAP); histidine tag
Description: (§1) Rabbit anti-6-His antibodies (Bethel Laboratories) were coated onto the wells of a 96-well plate (Nunc). After incubating at 4° C. overnight, the wells were blocked at room temperature for 1 hour by 1% Block Ace (DS Pharma Biomedical). After washing 3 times with 0.05% Tween 20/PBS (Thermo […]), each Eph receptor of human extracellular region-SEAP-His protein (final concentration 1 nM) was seeded into each well, and incubated at room temperature for 1 hour. After washing 3 times, human IgG solution (100 μg/mL, Mitsubishi Pharma Corporation) and antibody A (10 μg/mL) were supplemented to the wells, and incubated at room temperature for 1 hour. Horseradish peroxidase-labeled donkey anti-mouse IgG antibody (Jackson ImmunoResearch Laboratories) was added, and incubated at room, temperature for 1 hour. After washing 3 times, TMBZ (3,3′,5,5′-tetramethylbenzidine, Sigma) solution was added to the wells, and upon confirmation of modest coloring, an equal amount of quenching solution (1 N H₂SO₄, Wako Pure Chemicals) was added to the wells, and absorbance at 450 nm was read by a microplate reader (PerkinElmer).

[2] = target: T2, human EphA7 extracellular region-SEAP-His protein (human, UniProt Q15375 28-555); assay: as above
T2 construct: extracellular domain; also called Eph receptor extracellular region-SEAP-His protein; not shown: secretory alkaline phosphatase (SEAP); histidine tag
T2 sequence (looked up): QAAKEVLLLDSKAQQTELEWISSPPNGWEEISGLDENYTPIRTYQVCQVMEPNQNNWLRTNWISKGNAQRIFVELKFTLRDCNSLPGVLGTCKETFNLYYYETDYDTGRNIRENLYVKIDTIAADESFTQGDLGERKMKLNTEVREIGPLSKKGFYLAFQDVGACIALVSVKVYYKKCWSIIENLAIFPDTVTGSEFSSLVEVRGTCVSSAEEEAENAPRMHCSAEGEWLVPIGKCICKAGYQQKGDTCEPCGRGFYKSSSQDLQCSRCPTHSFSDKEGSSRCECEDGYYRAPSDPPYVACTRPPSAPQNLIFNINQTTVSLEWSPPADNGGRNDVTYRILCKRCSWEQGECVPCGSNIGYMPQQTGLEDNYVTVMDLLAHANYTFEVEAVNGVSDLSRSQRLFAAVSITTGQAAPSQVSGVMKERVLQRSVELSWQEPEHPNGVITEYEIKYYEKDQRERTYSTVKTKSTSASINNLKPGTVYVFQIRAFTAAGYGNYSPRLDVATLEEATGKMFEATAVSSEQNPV
Description: as §1

[3] = target: T3, mouse EphA4 extracellular region-Fc-His protein (mouse; human, UniProt Q03137 20-547); assay: ELISA: EphA4 extracellular region-Fc-His (1 nM) captured on anti-human IgG antibody, antibody A titrated with human IgG 100 µg/mL, HRP anti-mouse IgG, OD450 as % of top concentration
T3 construct: Used as culture supernatant of transfected cells; not shown: Fc region of human IgG1; histidine tag
Description: (§2) Donkey anti-human IgG antibodies (Jackson ImmunoResearch Laboratories) were coated onto the wells of a 96-well plate (Nunc). After incubating at 4° C. overnight, the wells were blocked at room temperature for 1 hour by 1% Block Ace (DS Pharma Biomedical). After washing 3 times with 0.05% Tween 20/PBS (Thermo […]), mouse, rat, monkey, and human EphA4 extracellular region-Fc-His proteins (final concentration 1 nM) were seeded into the wells, and incubated at room temperature for 1 hour. After washing 3 times, human IgG solution (100 μg/mL, Mitsubishi Pharma Corporation) and antibody A (0, 0.00013, 0.00064, 0.0032, 0.016, 0.08, 0.4, 2, 10, μg/mL) were supplemented to the wells, and incubated at room temperature for 1 hour. Horseradish peroxidase-labeled donkey anti-mouse IgG antibody (Jackson ImmunoResearch Laboratories) was added, and incubated at room temperature for 1 hour. After washing 3 times, TMBZ (3,3′,5,5′-tetramethylbenzidine, Sigma) solution was added to the wells, and upon confirmation of modest coloring, an equal amount of quenching solution (1 N H₂SO₄, Wako Pure Chemicals) was added to the wells, and absorbance at 450 nm was read by a microplate reader (PerkinElmer).

[4] = target: T4, rat EphA4 extracellular region-Fc-His protein (rat; human, UniProt D3ZZK3 20-547); assay: as above
T4 construct: range 20-547; also called rat EphA4 extracellular region-Pc-His protein; not shown: Fc region of human IgG1; histidine tag
Description: as §2

[5] = target: T5, monkey EphA4 extracellular region-Fc-His protein (monkey; human); assay: as above
T5 construct: not shown: Fc region of human IgG1; histidine tag
Description: as §2

[6] = target: T6, human EphA4 extracellular region-Fc-His protein (human, UniProt P54764 20-547); assay: as above
T6 construct: not shown: Fc region of human IgG1; histidine tag
Description: as §2

T3 sequence (Q03137 20-547): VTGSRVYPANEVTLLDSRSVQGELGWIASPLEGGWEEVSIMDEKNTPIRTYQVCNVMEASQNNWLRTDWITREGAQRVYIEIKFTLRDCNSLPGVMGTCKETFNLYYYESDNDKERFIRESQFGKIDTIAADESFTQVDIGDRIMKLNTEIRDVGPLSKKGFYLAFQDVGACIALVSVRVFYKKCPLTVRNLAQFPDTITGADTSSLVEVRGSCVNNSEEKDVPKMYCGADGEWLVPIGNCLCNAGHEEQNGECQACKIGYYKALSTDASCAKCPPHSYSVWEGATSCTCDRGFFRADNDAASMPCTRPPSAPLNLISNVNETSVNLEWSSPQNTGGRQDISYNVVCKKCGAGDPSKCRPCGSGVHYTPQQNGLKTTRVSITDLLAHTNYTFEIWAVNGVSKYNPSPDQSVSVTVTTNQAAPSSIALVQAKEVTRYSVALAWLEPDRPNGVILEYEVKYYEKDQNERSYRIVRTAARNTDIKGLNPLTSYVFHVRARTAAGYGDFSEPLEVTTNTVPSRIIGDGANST
T6 sequence (P54764 20-547): as the sequence (Q03137 20-547) above, with A59P, S121N, G124V, Q250R, N251S, S270T, R378K, S406N counted along it
T1 sequence (P54756 25-573): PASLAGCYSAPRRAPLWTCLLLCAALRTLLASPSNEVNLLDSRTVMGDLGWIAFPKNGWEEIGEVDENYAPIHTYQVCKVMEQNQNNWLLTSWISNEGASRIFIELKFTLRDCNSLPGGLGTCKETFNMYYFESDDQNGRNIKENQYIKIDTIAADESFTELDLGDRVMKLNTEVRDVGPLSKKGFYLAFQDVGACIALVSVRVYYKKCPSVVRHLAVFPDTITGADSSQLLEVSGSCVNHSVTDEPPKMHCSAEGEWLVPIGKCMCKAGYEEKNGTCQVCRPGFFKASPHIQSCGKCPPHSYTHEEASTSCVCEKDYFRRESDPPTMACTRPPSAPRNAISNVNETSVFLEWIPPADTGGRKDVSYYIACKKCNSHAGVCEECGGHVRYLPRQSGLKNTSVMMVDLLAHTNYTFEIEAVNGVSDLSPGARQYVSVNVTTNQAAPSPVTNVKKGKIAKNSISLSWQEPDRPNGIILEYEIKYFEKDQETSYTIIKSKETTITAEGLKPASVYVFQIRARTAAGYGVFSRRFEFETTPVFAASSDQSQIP
T5 sequence (chain, as listed by the source): as the sequence (Q03137 20-547) above, with A59P, S121N, G124V, Q250R, N251S, S270T, R378K counted along it

B1: mouse anti-EphA4 monoclonal antibody (antibody A) (antibody, mouse IgG1, kappa, V domains shown)
VH: QVQLKQSGPSLVQPSQSLSITCTVSGFSLTRYGVHWVRQSPGKGLEWLGVIWRGGSTDYNAAFMSRLSITKDNSKSQVFFKMNSLQADDTAIYYCAKESLFGVYYDYGYYSMDYWGQGTSVTVSS
VL: DIQMTQSPSSLSASLGERVSLTCRASQEISGYLSWLQQKPDGTIKRLIYAASTLDSGVPKRFSGSRSGSDYSLTISSLESEDFADYYCLQYASYPLTFGAGTKLELKR
notes: purified from hybridoma supernatant
binding result [1]: no binding (tested: 10 µg/mL)
binding result [2]: no binding (tested: 10 µg/mL)
EC50 (read off the curve) [3]: ~0.1 nM
EC50 (read off the curve) [4]: ~0.1 nM
EC50 (read off the curve) [5]: ~0.1 nM
EC50 (read off the curve) [6]: ~0.1 nM
